We go through two substances from patent publication US20230220038A1, “BRI2 BRICHOS DOMAIN FOR DELIVERY OF PROTEINS INTO CNS NEURONS” (ALPHABETA AB, priority 2021, published 2023).

One data set has as its target Aβ42 (Homo sapiens, UniProt P05067). Description: Aβ42 oligomer generation. Type of data set: biochemical.
Data set [1] relates to App^NL-G-F and App^NL-F mice. Particulars: mouse, in vivo, iv.
Method: After the end of 10-12 weeks of treatment, Bri2 BRICHOS amounts in the CNS were analysed.
Representative sections (A,D) were double stained with anti-Bri2 BRICHOS antibody (red/pink color) and 82E1 anti-Aβ antibody (green color) counterstained with hematoxylin Mayer (blue color) in rh Bri2 BRICHOS R221E or PBS treated App^NL-G-F and App^NL-F mice. Histograms represents mean intensity of Bri2 BRICHOS in hippocampus (B,E) and cortex (C,F) of App^NL-G-F (B,C) and App^NL-F (E,F) mice. Data are shown as mean±SEM (n=3-4 mice/group, 4 histological sections from each mouse analyzed). Unpaired parametric two-tailed t-test was used to calculate p-values. Scale bars represents 400 μm (upper four panels in A and D) and 100 μm (lower two panels in A and D). * p<0.05, ** p<0.01, *** p<0.001, **** p<0.0001.
Data set [2] has as its system hippocampal slice preparations. The data set can be described thus: Aβ42-induced neurotoxicity in hippocampal slice preparations.
A further data set concerns mice. Particulars: mouse, in vivo.
The test system of a further data set is mouse primary neurons. The data set can be described thus: Uptake into primary neurons in culture, fluorescence microscopy. Particulars: low nanomolar concentrations in culture medium, 24-48 h. Format: cell-based. On the procedure:
The data in FIG. 11A indicate that the fusion protein rh NT-Bri2 BRICHOS is internalized in CNS cells and appears in intracellular vesicles. We studied the intracellular localization in more detail, using primary mouse neurons in culture and the recombinant fusion protein mCherry-Bri2 BRICHOS. Recombinant mCherry-Bri2 BRICHOS was added to the culture medium at low nanomolar concentrations, and after 24-48 h the neurons were immobilized and visualized under a fluorescence microscope.

Chain of Aβ42 (P05067 672-713 limits assumed): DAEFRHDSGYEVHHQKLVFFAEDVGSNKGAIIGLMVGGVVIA

On to “Bri2 BRICHOS R221E monomers: rh Bri2 BRICHOS mutated R221E so that the monomer is stabilised (SEQ ID NO: 13)”, for which the “effect on Aβ42 oligomer generation” value with Aβ42 is given as “selectively reduces Aβ42 oligomer generation”. Further, the “overall Bri2 BRICHOS staining (mean intensity, hippocampus and cortex) versus PBS” value in data set [1] was “significant increase”. For the same substance, in data set [2], the “effect on Aβ42-induced neurotoxicity” value was “alleviates Aβ42-induced neurotoxicity”. The BBB passage result in the data set with mice was “passes the BBB in mice and shows a trend towards higher passage than the wildtype protein”.

In the case of “mCherry: control: ca 30 kDa fluorescent protein derived from sea anemones [reference compound]”, in the data set on mouse primary neurons, the “uptake into primary neurons” value is “not taken up to any detectable level”.
